Results taken from PMC12677587, “UHRF1 Controls the Timing of RAD51 Removal During DNA Damage Repair Through Suppressing RFWD3” (Advanced Science, 2025).

Experiments:
RAD51 = RAD51 (UniProt Q06609); test: co-IP of FLAG-UHRF1 and RAD51-HA; conditions: reference: wild type; sites S661
His-UHRF1 [1] = target: T1, His-UHRF1 (UniProt Q96T88-1 1-793); test: pull-down; GST pull-down: GST-RFWD3 on Glutathione resin precipitating His-UHRF1 with His-RAD51 or His-RAD51^R254Q added; His-tagged proteins detected by western blotting; conditions: both partners purified
T1 construct: UHRF1; last residue R793; source: E. coli BL21(DE3), purified (Ni-NTA agarose)
T1 sequence (looked up): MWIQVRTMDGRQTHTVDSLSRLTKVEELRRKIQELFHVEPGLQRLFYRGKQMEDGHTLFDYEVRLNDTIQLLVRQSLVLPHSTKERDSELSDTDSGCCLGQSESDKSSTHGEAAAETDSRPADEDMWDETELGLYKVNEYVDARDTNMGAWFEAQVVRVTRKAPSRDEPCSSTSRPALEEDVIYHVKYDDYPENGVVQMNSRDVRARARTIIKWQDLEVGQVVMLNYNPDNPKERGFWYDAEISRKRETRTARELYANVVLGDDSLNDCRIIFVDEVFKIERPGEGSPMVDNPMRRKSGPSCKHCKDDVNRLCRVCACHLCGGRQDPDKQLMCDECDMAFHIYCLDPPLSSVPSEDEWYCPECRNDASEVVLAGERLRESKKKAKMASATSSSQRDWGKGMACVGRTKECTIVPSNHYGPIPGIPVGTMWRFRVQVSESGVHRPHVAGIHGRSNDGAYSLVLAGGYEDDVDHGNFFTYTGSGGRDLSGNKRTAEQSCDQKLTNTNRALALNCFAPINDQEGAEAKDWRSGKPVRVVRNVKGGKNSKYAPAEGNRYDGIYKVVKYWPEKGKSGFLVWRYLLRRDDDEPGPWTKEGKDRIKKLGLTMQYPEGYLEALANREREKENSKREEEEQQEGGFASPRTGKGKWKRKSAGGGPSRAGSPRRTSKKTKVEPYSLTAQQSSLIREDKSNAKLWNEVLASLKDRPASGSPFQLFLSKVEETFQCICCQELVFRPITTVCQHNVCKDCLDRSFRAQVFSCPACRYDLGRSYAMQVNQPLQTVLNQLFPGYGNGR

GST-UHRF1 = target: T2, GST-UHRF1 (UniProt Q96T88-1 1-793); test: pull-down; His pull-down: purified His-RAD51 on Ni-chelated beads, GST-UHRF1 with increasing amounts of GST-RFWD3; Binding Buffer A (50 mM Tris-HCl pH 7.5-8.0, 50 mM NaCl), washes with 20 mM imidazole; western blotting; conditions: both partners purified
T2 construct: UHRF1; source: E. coli BL21(DE3), purified (Glutathione resin)
T2 sequence (looked up): T1 sequence (looked up)

His-UHRF1 [2] = target: T1, His-UHRF1; test: pull-down; GST pull-down: purified GST-RFWD3 on Glutathione resin, purified His-tagged UHRF1 proteins, 3 h at 4 °C in BCA buffer (20 mM Tris-HCl pH 7.4, 100 mM NaCl); washes with 300 mM NaCl; western blotting; conditions: both partners purified

With UHRF1 (from UniProt Q96T88) S661A the “binding against the reference” value (RAD51) was “stronger”.

B1: His-RAD51 (natural protein, UniProt Q06609 1-339, looked up)
chain: MAMQMQLEANADTSVEEESFGPQPISRLEQCGINANDVKKLEEAGFHTVEAVAYAPKKELINIKGISEAKADKILAEAAKLVPMGFTTATEFHQRRSEIIQITTGSKELDKLLQGGIETGSITEMFGEFRTGKTQICHTLAVTCQLPIDRGGGEGKAMYIDTEGTFRPERLLAVAERYGLSGSDVLDNVAYARAFNTDHQTQLLYQASAMMVESRYALLIVDSATALYRTDYSGRGELSARQMHLARFLRMLLRLADEFGVAVVITNQVVAQVDGAAMFAADPKKPIGGNIIAHASTTRLYLRKGRGETRICKIYDSPCLPEAEAMFAINADGVGDAKD
notes: RAD51 recombinase; also called purified RAD51; source: E. coli BL21(DE3), purified (Ni-NTA agarose)
B1: binds (His-UHRF1 [1]); binds (GST-UHRF1).

B2: GST-RFWD3 (natural protein, UniProt Q6PCD5 1-774, looked up)
chain: MAHEAMEYDVQVQLNHAEQQPAPAGMASSQGGPALLQPVPADVVSSQGVPSILQPAPAEVISSQATPPLLQPAPQLSVDLTEVEVLGEDTVENINPRTSEQHRQGSDGNHTIPASSLHSMTNFISGLQRLHGMLEFLRPSSSNHSVGPMRTRRRVSASRRARAGGSQRTDSARLRAPLDAYFQVSRTQPDLPATTYDSETRNPVSEELQVSSSSDSDSDSSAEYGGVVDQAEESGAVILEEQLAGVSAEQEVTCIDGGKTLPKQPSPQKSEPLLPSASMDEEEGDTCTICLEQWTNAGDHRLSALRCGHLFGYRCISTWLKGQVRKCPQCNKKARHSDIVVLYARTLRALDTSEQERMKSSLLKEQMLRKQAELESAQCRLQLQVLTDKCTRLQRRVQDLQKLTSHQSQNLQQPRGSQAWVLSCSPSSQGQHKHKYHFQKTFTVSQAGNCRIMAYCDALSCLVISQPSPQASFLPGFGVKMLSTANMKSSQYIPMHGKQIRGLAFSSYLRGLLLSASLDNTIKLTSLETNTVVQTYNAGRPVWSCCWCLDEANYIYAGLANGSILVYDVRNTSSHVQELVAQKARCPLVSLSYMPRAASAAFPYGGVLAGTLEDASFWEQKMDFSHWPHVLPLEPGGCIDFQTENSSRHCLVTYRPDKNHTTIRSVLMEMSYRLDDTGNPICSCQPVHTFFGGPTCKLLTKNAIFQSPENDGNILVCTGDEAANSALLWDAASGSLLQDLQTDQPVLDICPFEVNRNSYLATLTEKMVHIYKWE
notes: RFWD3 (ring finger and WD repeat domain 3); source: E. coli BL21(DE3), purified (Glutathione resin)
B2: binds (His-UHRF1 [2]).
